Values quoted from earlier work in paper PMC5722893.
pKd: −log10 of the molar value.

Columns and labels:
[1] = biological target: TSLP:TSLPR complex (Homo sapiens) (UniProt Q969D9)
[2] = biological target: TSLPR (Homo sapiens) (UniProt Q9HC73)
Chain of UniProt Q9HC73 (Q9HC73 23-231): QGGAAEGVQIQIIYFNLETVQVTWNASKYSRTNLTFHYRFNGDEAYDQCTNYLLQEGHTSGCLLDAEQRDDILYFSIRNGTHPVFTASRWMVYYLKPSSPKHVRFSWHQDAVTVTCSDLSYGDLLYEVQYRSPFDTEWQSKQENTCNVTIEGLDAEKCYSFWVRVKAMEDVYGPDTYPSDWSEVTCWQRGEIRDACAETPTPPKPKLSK

Substance | pKd [1] | pKd [2]
IL-7Ralpha (from UniProt P16871) | 7.54 | –
TSLP (from UniProt Q969D9) | – | 7.49
